Here are results for three substances from patent US5595904.

The target in test [1] is extracellular signal-regulated kinase 1 (ERK1) (rat).
The target in test [2] is microtubule-associated protein 2 (MAP2).
In test [3] the target is MBP.

In turn, “catalytic subunit of phosphatase 2a (enzyme)” had a specific activity of ERK1 with MAP2 after dephosphorylation in test [1] of 4 nmol/min/mg.

On to “extracellular signal-regulated kinase 1 (ERK1) (enzyme)”, for which, in test [2], the specific activity with MAP2 amounted to 300 nmol/min/mg.

For recombinant ERK2 (enzyme), the specific activity (phosphorylation of substrate) in test [3] and in test [2] was 1 nmol/min/mg each time.
